From paper PMC6547012, “TCP Transcription Factors Associate with PHYTOCHROME INTERACTING FACTOR 4 and CRYPTOCHROME 1 to Regulate Thermomorphogenesis in Arabidopsis thaliana” (iScience, 2019) come the findings set out here.

In this assay the target is T1, FLAG-CRY1 (Arabidopsis thaliana, UniProt Q43125 1-681).
T1 construct: CRYPTOCHROME 1 (CRY1), Arabidopsis thaliana; source: E. coli-purified
In words: pull-down; in vitro pull-down; MBP or MBP-TCP17 incubated with FLAG-CRY1 for 2 h at 4°C; immunoblot with anti-MBP or anti-FLAG. Conditions: both partners purified. (In western blotting, separated proteins are transferred to a membrane and probed.)

T1 sequence (Q43125 whole entry): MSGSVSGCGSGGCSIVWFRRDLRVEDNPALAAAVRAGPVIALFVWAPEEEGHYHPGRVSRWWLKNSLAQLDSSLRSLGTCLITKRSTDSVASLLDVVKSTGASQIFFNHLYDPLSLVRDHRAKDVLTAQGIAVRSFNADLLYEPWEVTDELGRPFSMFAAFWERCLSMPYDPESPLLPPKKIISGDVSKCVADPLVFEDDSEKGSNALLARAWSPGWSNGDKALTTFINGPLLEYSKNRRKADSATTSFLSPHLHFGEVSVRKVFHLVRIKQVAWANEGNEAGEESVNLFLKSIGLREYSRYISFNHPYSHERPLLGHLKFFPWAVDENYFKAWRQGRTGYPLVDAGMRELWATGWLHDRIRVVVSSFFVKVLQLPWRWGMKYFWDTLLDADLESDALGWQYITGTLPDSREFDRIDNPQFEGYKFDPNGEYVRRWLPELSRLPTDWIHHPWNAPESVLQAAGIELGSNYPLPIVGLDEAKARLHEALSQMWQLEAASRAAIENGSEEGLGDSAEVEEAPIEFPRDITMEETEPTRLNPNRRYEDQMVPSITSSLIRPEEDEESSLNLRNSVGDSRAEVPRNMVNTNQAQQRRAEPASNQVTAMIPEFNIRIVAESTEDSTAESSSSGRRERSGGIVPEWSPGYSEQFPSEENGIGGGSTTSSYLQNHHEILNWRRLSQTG

B1: MBP-TCP17 (natural protein, Arabidopsis thaliana, UniProt Q9LEZ9 1-242, looked up)
chain: MGIKKEDQKSSLSLLTQRWNNPRIVRVSRAFGGKDRHSKVCTVRGLRDRRIRLSVMTAIQVYDLQERLGLSQPSKVIDWLLEVAKNDVDLLPPLQFPPGFHQLNPNLTGLGESFPGVFDLGRTQREALDLEKRKWVNLDHVFDHIDHHNHFSNSIQSNKLYFPTITSSSSSYHYNLGHLQQSLLDQSGNVTVAFSNNYNNNNLNPPAAETMSSLFPTRYPSFLGGGQLQLFSSTSSQPDHIE
notes: TCP17, Arabidopsis thaliana; also called MBP-tagged TCP17; source: E. coli expressed and purified
Turning to B1, the binding result was “binds”.
